B1: HvNar2.3: barley associate protein Nar2 of two-component HATS, SEQ ID NO: 6 (protein)
chain: MARQGMVTALLLLVLAAGCCASAGAVAYLSKLPVTLDVTASPTPGQVLHAGEDVITVTWALNASQPAGKDADYKNVKVSLCYAPVSQKEREWRKTHDDLKKDKTCQFKITQQAYPGAGKVEYRVALDIPTATYYVRAYALDASGTQVAYGQTAPTAAFNVVSITGVTTSIKVAAGVFSAFSVASLAFFFFIEKRKKNN
modifications: Hordeum vulgare
B2: AtNrt1.1: higher plant nitrate transporter protein, GenBank accession L10357 (protein, UniProt Q05085 1-590, looked up)
Protein NRT1/ PTR FAMILY 6.3: MSLPETKSDDILLDAWDFQGRPADRSKTGGWASAAMILCIEAVERLTTLGIGVNLVTYLTGTMHLGNATAANTVTNFLGTSFMLCLLGGFIADTFLGRYLTIAIFAAIQATGVSILTLSTIIPGLRPPRCNPTTSSHCEQASGIQLTVLYLALYLTALGTGGVKASVSGFGSDQFDETEPKERSKMTYFFNRFFFCINVGSLLAVTVLVYVQDDVGRKWGYGICAFAIVLALSVFLAGTNRYRFKKLIGSPMTQVAAVIVAAWRNRKLELPADPSYLYDVDDIIAAEGSMKGKQKLPHTEQFRSLDKAAIRDQEAGVTSNVFNKWTLSTLTDVEEVKQIVRMLPIWATCILFWTVHAQLTTLSVAQSETLDRSIGSFEIPPASMAVFYVGGLLLTTAVYDRVAIRLCKKLFNYPHGLRPLQRIGLGLFFGSMAMAVAALVELKRLRTAHAHGPTVKTLPLGFYLLIPQYLIVGIGEALIYTGQLDFFLRECPKGMKGMSTGLLLSTLALGFFFSSVLVTIVEKFTGKAHPWIADDLNKGRLYNFYWLVAVLVALNFLIFLVFSKWYVYKEKRLAEVGIELDDEPSIPMGH
B3: AtNrt1.3: higher plant nitrate transporter protein, GenBank accession AB019232 (protein, UniProt Q9LVE0 1-590, looked up)
Protein NRT1/ PTR FAMILY 6.4: MVHVSSSHGAKDGSEEAYDYRGNPPDKSKTGGWLGAGLILGSELSERICVMGISMNLVTYLVGDLHISSAKSATIVTNFMGTLNLLGLLGGFLADAKLGRYKMVAISASVTALGVLLLTVATTISSMRPPICDDFRRLHHQCIEANGHQLALLYVALYTIALGGGGIKSNVSGFGSDQFDTSDPKEEKQMIFFFNRFYFSISVGSLFAVIALVYVQDNVGRGWGYGISAATMVVAAIVLLCGTKRYRFKKPKGSPFTTIWRVGFLAWKKRKESYPAHPSLLNGYDNTTVPHTEMLKCLDKAAISKNESSPSSKDFEEKDPWIVSTVTQVEEVKLVMKLVPIWATNILFWTIYSQMTTFTVEQATFMDRKLGSFTVPAGSYSAFLILTILLFTSLNERVFVPLTRRLTKKPQGITSLQRIGVGLVFSMAAMAVAAVIENARREAAVNNDKKISAFWLVPQYFLVGAGEAFAYVGQLEFFIREAPERMKSMSTGLFLSTISMGFFVSSLLVSLVDRVTDKSWLRSNLNKARLNYFYWLLVVLGALNFLIFIVFAMKHQYKADVITVVVTDDDSVEKEVTKKESSEFELKDIP
B4: AtNrt1.4: higher plant nitrate transporter protein, GenBank accession AC003105 (protein, UniProt Q9SZY4 1-577, looked up)
Protein NRT1/ PTR FAMILY 6.2: MESKGSWTVADAVDYKGRPADKSKTGGWITAALILGIEVVERLSTMGIAVNLVTYLMETMHLPSSTSANIVTDFMGTSFLLCLLGGFLADSFLGRFKTIGIFSTIQALGTGALAVATKLPELRPPTCHHGEACIPATAFQMTILYVSLYLIALGTGGLKSSISGFGSDQFDDKDPKEKAHMAFFFNRFFFFISMGTLLAVTVLVYMQDEVGRSWAYGICTVSMAIAIVIFLCGTKRYRYKKSQGSPVVQIFQVIAAAFRKRKMELPQSIVYLYEDNPEGIRIEHTDQFHLLDKAAIVAEGDFEQTLDGVAIPNPWKLSSVTKVEEVKMMVRLLPIWATTIIFWTTYAQMITFSVEQASTMRRNIGSFKIPAGSLTVFFVAAILITLAVYDRAIMPFWKKWKGKPGFSSLQRIAIGLVLSTAGMAAAALVEQKRLSVAKSSSQKTLPISVFLLVPQFFLVGAGEAFIYTGQLDFFITQSPKGMKTMSTGLFLTTLSLGFFVSSFLVSIVKRVTSTSTDVGWLADNINHGRLDYFYWLLVILSGINFVVYIICALWFKPTKGKDSVEKENGKGFSVEDC

Experiments:
[1] = test system: Arabidopsis Nrt1.1 transformants; experiment: Functional pre-screening chlorate assay (growth on minimal plate); assay type: cell-based, Pichia pastoris; conditions: very small concentrations of chlorate, relative to Pichia angusta Nrt transformants
Experimental: 5 μL of overnight YPD transformant cultures were spotted onto a minimal plate containing yeast nitrogen base, 10 mM proline, 2% glucose and 3-20 mM chlorate. These were incubated overnight at 30° C. The amount of growth was observed the next morning. […] This assay was repeated with various Nrt genes.

[2] = test system: Pichia angusta Nrt transformants; experiment: as above; assay type: cell-based, Pichia pastoris; conditions: 0.5 mM chlorate, overnight at 30° C.
Experimental: […] These were incubated overnight at 30° C. The amount of growth was observed the next morning. […] This assay was repeated with various Nrt genes.

[3] = test system: Pichia pastoris cells with co-expressed Arabidopsis nitrate reductase and a yeast nitrate transporter; conditions: 150 mM chlorate on solid medium; methanol-inducible AOX promoter; cited from earlier work
functional transformants = experiment: Chlorate assay, functional transformants with pGAP promoter; assay type: cell-based, Pichia pastoris; conditions: as low as
Experimental: A particularly effective way to screen for functional transformants is the use of a chlorate assay. It is known that Pichia pastoris cells with co-expressed Arabidopsis nitrate reductase and a yeast nitrate transporter driven under methanol-inducible AOX promoter are sensitive to 150 mM chlorate on solid medium. See, Unkles, et al., (2004) J. Biol. Chem., 279:28182-86. However, when a constitutive promoter rather than the commonly-used pAOX is used, the sensitivity of the functional transformants to chlorate increases substantially, and therefore the chlorate assay is much more sensitive. For example, when the preferred pGAP promoter is used, functional transformants are sensitive to chlorate concentrations much below 150 mM, such as by concentrations of as low as about 0.5 mM. Of course, the sensitivity level will vary depending on the rate of uptake of the particular Nrt integrated into the Pichia pastoris.

[4] = test system: P. pastoris GS115-YNR1 transformants; experiment: Nitrate transporter (NT) activity of barley two-component HATS transformants, nitrite assay; assay type: cell-based, Pichia pastoris; conditions: 1 mM NaNO3, 2 hours at 30° C., pH 6.5; compared to negative controls GS115 wt and GS115-YNR1
Text: To test if P. pastoris was capable to identify a plant two-component HATS system, the following constructs containing HvNrt2.1 (SEQ ID NO: 5) or HvNar2.3 (SEQ ID NO: 6) were made and transformed into GS115-YNR1 line at AOX locus individually: pPIC3.5-pGAP-HvNrt2.1 or pPIC3.5-pGAP-HvNar2.3. To obtain transformants carrying HvNar2.3 and HvNrt2.1, GS115 wt was transformed with pPIC3.5-pGAPHvNar2.3-pGAPYNR at His 4 locus, then re-transformed with pPIC3.5-pGAP-HvNrt2.1 at AOX locus after the line was confirmed carrying both YNR1 and HvNar2.3 genes by PCR. The transformants were cultured in rich media (YPD) at 30° C. for overnight. Yeast cells were collected and washed with water twice then re-suspended in […], pH 6.5 and 1% glucose containing 1 mM NaNO3. After 2 hours incubation at 30° C., the supernatant was collected for nitrite assay with 1% Sulfanilamide, 0.01% N-(1-Naphthyl)ethylene-diamine dihydrochloride and 15% (v/v) H3PO4.

[5] = test system: Pichia pastoris cell expressing the indicated nitrate transporter gene; experiment: In vivo nitrate uptake assay (nitrite in medium by Griess reagent, Michaelis-Menten fit); assay type: cell-based; conditions: transporter co-expressed with YNR1 in Pichia pastoris; 20 mM MOPS pH 6.5, 1% glucose; nitrate 0-30 mM
Text: Pichia pastoris is a non-nitrate assimilating yeast. Because of this, any nitrate taken in via the Nrt is converted to nitrite by the co-expressed Nr and diffused or transported to the medium. This property permits the transformed Pichia pastoris to be used as an in vivo nitrate uptake assay, as the amount of nitrate taken into the cells is directly proportional to the nitrite later present in the growth medium. Nitrite may be quantitatively detected using Griess reagent or any other method known in the art. By way of the assay, various kinetic parameters of an Nrt may be quantified, such as Km and Vmax.
The assay is generally performed by incubating transformed Pichia pastoris on a medium containing nitrate for a set amount of time and assessing the amount of nitrite diffused to the medium after that set amount of time. The medium is preferably buffered. Most preferably, the medium has about 20 mM MOPS, pH 6.5, buffer and about 1% glucose, as this buffered medium allows the detection of linear uptake for up to several hours. The table below provides kinetic data for several Nrt proteins ascertained using the in vivo uptake assay herein described:
Pichia pastoris transformants were prepared in accordance with example 1 above and grown in YPD medium at 30° C. for 1 day. Cell pellets were washed twice with water then resuspended with a proper amount of uptake medium including nitrate. 24 different nitrate concentrations were tested, ranging from 0-30 mM. Optimal results were obtained with a buffered medium such as 20 mM MOPS, pH 6.5, 1% glucose, and the varying concentrations of nitrate. The aliquots were transferred into a 96-well plate; supernatants were mixed with Greiss reagent and monitored at 545 nm using a plate reader produced by Molecular Devices.
The raw data were fitted into proper kinetic equations, such as the Michaelis-Menton equation, using a program such as KaleidaGraph, available from Synergy Software, Reading Pa., USA. This in vivo uptake assay permits the kinetics of various nitrate transporters to be ascertained, such as those listed in Table 1 above.

Molecule | NT activity [4] | Km [5] | Vmax, μM of nitrate taken up in one minute by 50 μl Pichia pastoris cell [5] | other results
[O-][Cl+2]([O-])O [chlorate] | – | – | – | sensitivity of transformants to chlorate [1]: less sensitive; growth of transformants in chlorate [2]: inhibited; sensitivity to chlorate [3]: sensitive; chlorate concentration to which functional transformants are sensitive (functional transformants): about 0.5 mM
HvNrt2.1: barley carrier-type protein Nrt2 of two-component HATS, SEQ ID NO: 5 | did not have NT activity | – | – | –
B1 | did not have NT activity | – | – | –
B2 | – | 360 µM | 8.0 μM/m/50 μl cell | –
B3 | – | 7400 µM | 14.4 μM/m/50 μl cell | –
B4 | – | 610 µM | 4.0 μM/m/50 μl cell | –
